Test results taken from PMC7949025, “Biophysical characterization of the ETV6 PNT domain polymerization interfaces” (The Journal of Biological Chemistry, 2021).

T1: biotinylated V112E-PNT domain (ETV6 residues 43-135, V112E, with Avitag) (human, UniProt P41212 43-135, V112E, biotin on the Avitag (~50 to 95% biotinylated))
T1 construct: ETV6, human, residues 43-135 of V112E ETV6; also called biotinylated V112E-PNT domain ligand; V112E-PNT domain ligand; source: E. coli BL21 (λDE3) co-transformed with pET21a-BirA, purified (Ni-NTA, thrombin cleavage); not shown: His6, N-terminal, cleaved; Avitag, N-terminal, kept
T1 sequence (looked up): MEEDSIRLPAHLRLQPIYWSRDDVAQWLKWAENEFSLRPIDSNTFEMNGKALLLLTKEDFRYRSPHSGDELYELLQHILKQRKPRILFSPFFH


These binders were tested against T1, biotinylated V112E-PNT domain (ETV6 …) (assay: SPR; biotinylated V112E-PNT domain ligand captured on streptavidin Sensor Chip SA, PNT domain analytes flowed; Biacore X100, 25 °C, HBS-EP+ (10 mM HEPES, 150 mM NaCl, 3 mM EDTA, 0.05% v/v Tween-20, pH 7.4); analyte 0.2-60 nM, re-run at 20-6000 nM if KD > 60 nM). Conditions: both partners purified.
Procedure, shortened: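 In a Biacore X100 at 25 °C, a streptavidin Sensor Chip SA captured biotinylated ETV6 PNT domain (residues 43-135, Avitag) diluted to 50 μg/ml in HBS-EP+, and PNT domain analytes were injected at 0.2-60 nM, or at 20-6000 nM when binding was weaker. Rate and equilibrium dissociation constants came from the Biacore kinetics/affinity software wizard.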

Row | Kd [nM] | koff [s⁻¹] | kon [M⁻¹ s⁻¹] | Binder
1 | 200 | 0.0016 | 8100 | L79A-A93D-PNT domain (domain or fragment, human, UniProt P41212 40-125, looked up, ETV6 PNT domain, human; source: E. coli BL21 (λDE3), purified (Ni-NTA, thrombin cleavage); not shown: His6, N-terminal, cleaved) ALRMEEDSIRLPAHLRLQPIYWSRDDVAQWLKWAENEFSARPIDSNTFEMNGKDLLLLTKEDFRYRSPHSGDVLYELLQHILKQRK
2 | 5 | 0.0015 | 310000 | E100A-A93D-PNT domain (domain or fragment, human, UniProt P41212 40-125, looked up, ETV6 PNT domain, human; source: E. coli BL21 (λDE3), purified (Ni-NTA, thrombin cleavage); not shown: His6, N-terminal, cleaved) ALRMEEDSIRLPAHLRLQPIYWSRDDVAQWLKWAENEFSLRPIDSNTFEMNGKDLLLLTKADFRYRSPHSGDVLYELLQHILKQRK
3 | 6.9 | 0.0014 | 210000 | S47A-A93D-PNT domain (domain or fragment, human, UniProt P41212 40-125, looked up, ETV6 PNT domain, human; source: E. coli BL21 (λDE3), purified (Ni-NTA, thrombin cleavage); not shown: His6, N-terminal, cleaved) ALRMEEDAIRLPAHLRLQPIYWSRDDVAQWLKWAENEFSLRPIDSNTFEMNGKDLLLLTKEDFRYRSPHSGDVLYELLQHILKQRK
4 | 12 | 0.004 | 340000 | I48A-A93D-PNT domain (domain or fragment, human, UniProt P41212 40-125, looked up, ETV6 PNT domain, human; source: E. coli BL21 (λDE3), purified (Ni-NTA, thrombin cleavage); not shown: His6, N-terminal, cleaved) ALRMEEDSARLPAHLRLQPIYWSRDDVAQWLKWAENEFSLRPIDSNTFEMNGKDLLLLTKEDFRYRSPHSGDVLYELLQHILKQRK
5 | 5.4 | 0.0014 | 260000 | H108A-A93D-PNT domain (domain or fragment, human, UniProt P41212 40-125, looked up, ETV6 PNT domain, human; source: E. coli BL21 (λDE3), purified (Ni-NTA, thrombin cleavage); not shown: His6, N-terminal, cleaved) ALRMEEDSIRLPAHLRLQPIYWSRDDVAQWLKWAENEFSLRPIDSNTFEMNGKDLLLLTKEDFRYRSPASGDVLYELLQHILKQRK
6 | 21 | 0.0054 | 250000 | R103A-A93D-PNT domain (domain or fragment, human, UniProt P41212 40-125, looked up, ETV6 PNT domain, human; source: E. coli BL21 (λDE3), purified (Ni-NTA, thrombin cleavage); not shown: His6, N-terminal, cleaved) ALRMEEDSIRLPAHLRLQPIYWSRDDVAQWLKWAENEFSLRPIDSNTFEMNGKDLLLLTKEDFAYRSPHSGDVLYELLQHILKQRK
7 | 11 | 0.0025 | 230000 | E115A-A93D-PNT domain (domain or fragment, human, UniProt P41212 40-125, looked up, ETV6 PNT domain, human; source: E. coli BL21 (λDE3), purified (Ni-NTA, thrombin cleavage); not shown: His6, N-terminal, cleaved) ALRMEEDSIRLPAHLRLQPIYWSRDDVAQWLKWAENEFSLRPIDSNTFEMNGKDLLLLTKEDFRYRSPHSGDVLYALLQHILKQRK
8 | 450 | 0.015 | 34000 | F77A-A93D-PNT domain (domain or fragment, human, UniProt P41212 40-125, looked up, ETV6 PNT domain, human; source: E. coli BL21 (λDE3), purified (Ni-NTA, thrombin cleavage); not shown: His6, N-terminal, cleaved) ALRMEEDSIRLPAHLRLQPIYWSRDDVAQWLKWAENEASLRPIDSNTFEMNGKDLLLLTKEDFRYRSPHSGDVLYELLQHILKQRK
9 | 930 | 0.0023 | 2400 | K99A-A93D-PNT domain (domain or fragment, human, UniProt P41212 40-125, looked up, ETV6 PNT domain, human; source: E. coli BL21 (λDE3), purified (Ni-NTA, thrombin cleavage); not shown: His6, N-terminal, cleaved) ALRMEEDSIRLPAHLRLQPIYWSRDDVAQWLKWAENEFSLRPIDSNTFEMNGKDLLLLTAEDFRYRSPHSGDVLYELLQHILKQRK
10 | 550 | 0.011 | 20000 | V112A-A93D-PNT domain (domain or fragment, human, UniProt P41212 40-125, looked up, ETV6 PNT domain, human; source: E. coli BL21 (λDE3), purified (Ni-NTA, thrombin cleavage); not shown: His6, N-terminal, cleaved) ALRMEEDSIRLPAHLRLQPIYWSRDDVAQWLKWAENEFSLRPIDSNTFEMNGKDLLLLTKEDFRYRSPHSGDALYELLQHILKQRK
11 | 420 | 0.0014 | 3300 | D111A-A93D-PNT domain (domain or fragment, human, UniProt P41212 40-125, looked up, ETV6 PNT domain, human; source: E. coli BL21 (λDE3), purified (Ni-NTA, thrombin cleavage); not shown: His6, N-terminal, cleaved) ALRMEEDSIRLPAHLRLQPIYWSRDDVAQWLKWAENEFSLRPIDSNTFEMNGKDLLLLTKEDFRYRSPHSGAVLYELLQHILKQRK
12 | 3.3 | 0.0093 | 2.8e+06 | S78A-A93D-PNT domain (domain or fragment, human, UniProt P41212 40-125, looked up, ETV6 PNT domain, human; source: E. coli BL21 (λDE3), purified (Ni-NTA, thrombin cleavage); not shown: His6, N-terminal, cleaved) ALRMEEDSIRLPAHLRLQPIYWSRDDVAQWLKWAENEFALRPIDSNTFEMNGKDLLLLTKEDFRYRSPHSGDVLYELLQHILKQRK
13 | 32 | 0.0029 | 91000 | R80A-A93D-PNT domain (domain or fragment, human, UniProt P41212 40-125, looked up, ETV6 PNT domain, human; source: E. coli BL21 (λDE3), purified (Ni-NTA, thrombin cleavage); not shown: His6, N-terminal, cleaved) ALRMEEDSIRLPAHLRLQPIYWSRDDVAQWLKWAENEFSLAPIDSNTFEMNGKDLLLLTKEDFRYRSPHSGDVLYELLQHILKQRK
14 | 9.9 | 0.0062 | 620000 | E76A-A93D-PNT domain (domain or fragment, human, UniProt P41212 40-125, looked up, ETV6 PNT domain, human; source: E. coli BL21 (λDE3), purified (Ni-NTA, thrombin cleavage); not shown: His6, N-terminal, cleaved) ALRMEEDSIRLPAHLRLQPIYWSRDDVAQWLKWAENAFSLRPIDSNTFEMNGKDLLLLTKEDFRYRSPHSGDVLYELLQHILKQRK
